These results are taken from patent US20240158448A1 (published 2024).

No end group written: not given here. FAM = 5(6)-carboxyfluorescein

One may read the Kd as the constant that tells how readily two partners part at equilibrium. A lower Kd goes with a tighter complex.

Assay [1] addresses T1, human SIRPα expressed on cells (PMA-differentiated THP-1 macrophages; A549 cells) (human, UniProt P78324 31-504). The assay is described as follows: fluorescence microscopy saturation binding; live THP-1 macrophages.
In assay [2] the target is T2, mouse SIRPα expressed on J774A.1 macrophages (mouse, UniProt P97797 32-513).
T2 chain: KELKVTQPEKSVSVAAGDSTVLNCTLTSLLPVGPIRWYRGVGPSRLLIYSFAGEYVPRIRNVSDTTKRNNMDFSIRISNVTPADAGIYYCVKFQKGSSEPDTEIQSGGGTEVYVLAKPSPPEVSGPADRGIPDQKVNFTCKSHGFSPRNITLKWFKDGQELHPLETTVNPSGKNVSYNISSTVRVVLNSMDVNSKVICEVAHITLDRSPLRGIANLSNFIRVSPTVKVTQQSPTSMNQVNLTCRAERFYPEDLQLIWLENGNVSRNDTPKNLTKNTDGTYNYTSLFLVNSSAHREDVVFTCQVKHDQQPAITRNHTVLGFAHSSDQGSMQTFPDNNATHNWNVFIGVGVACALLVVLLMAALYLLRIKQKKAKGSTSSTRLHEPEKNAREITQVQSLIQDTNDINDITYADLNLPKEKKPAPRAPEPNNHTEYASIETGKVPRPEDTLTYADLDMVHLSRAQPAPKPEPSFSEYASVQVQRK
The assay is described as follows: fluorescence microscopy saturation binding; live J774A.1 macrophages.

Assay [3] deals with T1, human SIRPα expressed on cells …. The assay is described as follows: fluorescence microscopy saturation binding; live THP-1 macrophages, corrected by subtracting nS-X-FAM.
Assay [4] shares this target. The assay can be described thus: fluorescence microscopy saturation binding; fixed THP-1 macrophages.

B1: FAM-labeled nS-V (peptide)
peptide: K(FAM)VTELVREG-NH2
Consider B1, for which the Kd in assay [1] was 161 µM; in assay [2], 203 µM; in assay [3] it was 123 µM; in assay [4], 32 µM.

B2: FAM-labeled nS-wt (peptide)
peptide: K(FAM)VTELTREG-NH2
Regarding B2, the Kd is 148 µM in assay [1], 138 µM in assay [2] and 52 µM in assay [3].

B3: FAM-labeled nS-X (peptide)
peptide: K(FAM)LETVEGTR-NH2
Consider B3, for which the affinity in assay [1], expressed as Kd, was 916 µM.

B4: FAM-labeled nS-F (peptide)
peptide: K(FAM)VTELFREG-NH2
For B4, the values for the Kd in assay [1] and in assay [3] were 195 µM and 93 µM, respectively.
